In patent US20230087600A1:

T1: mouse IL-10 receptor (IL-10R) on T cells and B cells of C57BL/6 mouse splenocytes (mouse) (UniProt Q61727)
T1 sequence (looked up) 1: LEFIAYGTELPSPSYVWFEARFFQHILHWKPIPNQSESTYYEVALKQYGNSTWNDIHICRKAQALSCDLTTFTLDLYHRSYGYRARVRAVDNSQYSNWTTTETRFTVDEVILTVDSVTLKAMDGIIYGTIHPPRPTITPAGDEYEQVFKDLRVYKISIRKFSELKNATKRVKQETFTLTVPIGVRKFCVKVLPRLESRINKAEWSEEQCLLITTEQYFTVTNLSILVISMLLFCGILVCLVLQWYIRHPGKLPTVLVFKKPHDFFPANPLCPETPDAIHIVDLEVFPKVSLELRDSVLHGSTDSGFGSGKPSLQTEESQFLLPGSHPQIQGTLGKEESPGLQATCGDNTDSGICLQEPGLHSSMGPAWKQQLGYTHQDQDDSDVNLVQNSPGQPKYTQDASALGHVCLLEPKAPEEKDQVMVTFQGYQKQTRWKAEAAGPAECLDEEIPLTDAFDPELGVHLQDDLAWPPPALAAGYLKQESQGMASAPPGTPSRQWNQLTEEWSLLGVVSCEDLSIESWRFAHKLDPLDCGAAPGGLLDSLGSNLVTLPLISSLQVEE
T1 sequence (looked up) 2: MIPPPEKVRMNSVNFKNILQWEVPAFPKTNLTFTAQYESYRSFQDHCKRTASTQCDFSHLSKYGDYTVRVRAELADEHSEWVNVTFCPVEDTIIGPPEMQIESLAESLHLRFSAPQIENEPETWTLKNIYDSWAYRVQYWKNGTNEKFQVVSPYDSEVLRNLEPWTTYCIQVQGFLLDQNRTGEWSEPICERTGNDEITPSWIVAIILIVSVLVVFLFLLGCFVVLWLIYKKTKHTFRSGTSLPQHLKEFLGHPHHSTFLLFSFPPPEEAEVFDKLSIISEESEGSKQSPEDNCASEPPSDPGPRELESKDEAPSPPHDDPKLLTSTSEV

B1: mouse IL-10 (ligand, UniProt P18893 19-178, looked up)
chain: SRGQYSREDNNCTHFPVGQSHMLLELRTAFSQVKTFFQTKDQLDNILLTDSLMQDFKGYLGCQALSEMIQFYLVEVMPQAEKHGPEIKEHLNSLGEKLKTLRMRLRRCHRFLPCENKSKAVEQVKSDFNKLQDQGVYKAMNEFDIFINCIEAYMMIKMKS
B2: 5KPEG-mIL-10 (ligand, mouse, UniProt P18893 19-178, looked up)
chain: B1 chain
modifications: conjugated to 5 kD PEG; site of attachment not stated

Biological target: T1, mouse IL-10 receptor (IL-10R) on T cells and B cells of C57BL/6 mouse splenocytes (mouse)
Experiment: cell-based or functional assay

Row | Binder | STAT3 phosphorylation (pY705), flow cytometry, B cells of C57BL/6 mouse splenocytes (CD19 + B cells), EC50 [pM] | STAT3 phosphorylation (pY705), flow cytometry, CD3+ T cells of C57BL/6 mouse splenocytes, EC50 [pM]
1 | B1 | 55.3 | 91.4
2 | B2 | 120 | 390
